Measured values published in PMC5896956, “Small molecule induced oligomerization, clustering and clathrin-independent endocytosis of the dopamine transporter” (eLife, 2018).

Legend:
[1] = molecular target: the molecule itself; test: SDS-resistant oligomers on SDS-PAGE and western blot; striatal synaptosomes of adult HA-DAT mice in KRH/G, vehicle (DMSO) or 10–20 µM AIM-100 for 2 hr at 37°C; pelleted synaptosomes denatured in Laemmli buffer, SDS-PAGE, blot with DAT antibody
[2] = molecular target: the molecule itself; test: SDS-resistant oligomers on SDS-PAGE and western blot; PAE cells stably expressing the tagged transporter, vehicle (DMSO) or 20 µM AIM-100 for 2 hr at 37°C (also after cocaine, dopamine, amphetamine, modafinil, KRCA-0008, CHC siRNA, at 4°C or 20°C); lysis in TGH buffer, Laemmli buffer (2% SDS, 5% β-mercaptoethanol) 5 min at 95°C, 7.5% SDS-PAGE, blot with GFP antibody; oligomers (O) against monomers (M)

Protein | stoichiometry N [1] | stoichiometry N [2]
HA-DAT (endogenous, HA-DAT knock-in mouse) (natural protein, UniProt Q61327 1-619, looked up, it is reached by the HA11 antibody from outside the cell; Detected with the rat DAT antibody; oligomer species at 190 kDa; also called mouse DAT; source: endogenous (knock-in), striatal synaptosomes of adult HA-DAT mice) MSKSKCSVGPMSSVVAPAKEPNAVGPREVELILVKEQNGVQLTNSTLINPPQTPVEVQERETWSKKIDFLLSVIGFAVDLANVWRFPYLCYKNGGGAFLVPYLLFMVIAGMPLFYMELALGQFNREGAAGVWKICPVLKGVGFTVILISFYVGFFYNVIIAWALHYFFSSFTMDLPWIHCNNTWNSPNCSDAHSSNSSDGLGLNDTFGTTPAAEYFERGVLHLHQSRGIDDLGPPRWQLTACLVLVIVLLYFSLWKGVKTSGKVVWITATMPYVVLTALLLRGVTLPGAMDGIRAYLSVDFYRLCEASVWIDAATQVCFSLGVGFGVLIAFSSYNKFTNNCYRDAIITTSINSLTSFSSGFVVFSFLGYMAQKHNVPIRDVATDGPGLIFIIYPEAIATLPLSSAWAAVFFLMLLTLGIDSAMGGMESVITGLVDEFQLLHRHRELFTLGIVLATFLLSLFCVTNGGIYVFTLLDHFAAGTSILFGVLIEAIGVAWFYGVQQFSDDIKQMTGQRPNLYWRLCWKLVSPCFLLYVVVVSIVTFRPPHYGAYIFPDWANALGWIIATSSMAMVPIYATYKFCSLPGSFREKLAYAITPEKDRQLVDRGEVRQFTLRHWLLV | ~3 | –
DAT fused to yellow fluorescent protein (YFP) (YFP-DAT) (natural protein, human, UniProt Q01959 1-620, looked up, Dopamine transporter (DAT), human; In the FRET experiment one copy carried CFP (CFP-DAT) and the other YFP (YFP-DAT); also called CFP-DAT (the copy with CFP in place of YFP, donor in the FRET experiment); source: PAE cells, stably expressed, in lysate; for FRET in living PAE cells stably co-expressing CFP-DAT and YFP-DAT) MSKSKCSVGLMSSVVAPAKEPNAVGPKEVELILVKEQNGVQLTSSTLTNPRQSPVEAQDRETWGKKIDFLLSVIGFAVDLANVWRFPYLCYKNGGGAFLVPYLLFMVIAGMPLFYMELALGQFNREGAAGVWKICPILKGVGFTVILISLYVGFFYNVIIAWALHYLFSSFTTELPWIHCNNSWNSPNCSDAHPGDSSGDSSGLNDTFGTTPAAEYFERGVLHLHQSHGIDDLGPPRWQLTACLVLVIVLLYFSLWKGVKTSGKVVWITATMPYVVLTALLLRGVTLPGAIDGIRAYLSVDFYRLCEASVWIDAATQVCFSLGVGFGVLIAFSSYNKFTNNCYRDAIVTTSINSLTSFSSGFVVFSFLGYMAQKHSVPIGDVAKDGPGLIFIIYPEAIATLPLSSAWAVVFFIMLLTLGIDSAMGGMESVITGLIDEFQLLHRHRELFTLFIVLATFLLSLFCVTNGGIYVFTLLDHFAAGTSILFGVLIEAIGVAWFYGVGQFSDDIQQMTGQRPSLYWRLCWKLVSPCFLLFVVVVSIVTFRPPHYGAYIFPDWANALGWVIATSSMAMVPIYAAYKFCSLPGSFREKLAYAIAPEKDRELVDRGEVRQFTLRHWLKV | – | ~3
